Test results: paper PMC7367873, “Dissecting the sequence determinants for dephosphorylation by the catalytic subunits of phosphatases PP1 and PP2A” (Nature Communications, 2020)
Each block holds one molecule with its values, some of them ahead of it.

Key:
[1] = test system: GFP-14-3-3β and its binding proteins; test: GFP-14-3-3β co-IP with LC-MS/MS label-free quantification, untreated versus PP1c-treated; design: species or system human; details: pairwise comparison PP1 vs untreated, 3 replicates each
GFP-14-3-3β = GFP-14-3-3β co-IP with LC-MS/MS, untreated GFP-14-3-3β versus GFP control (14-3-3 interactome); type: binding, human; details: 3 replicates each
[2] = student's t-test, LC-MS/MS label-free quantification
[3] = pairwise comparison untreated GFP-14-3-3β vs GFP, student's t-test, LC-MS/MS label-free quantification
[4] = log2 difference, label-free quantification
[5] = log2 difference, pairwise comparison untreated vs GFP, label-free quantification

Difference (log2), PP1 vs untreated [1, 2]: -5.63 log2
B1: PI4KB (protein, UniProt Q9UBF8 2-816, looked up)
Phosphatidylinositol 4-kinase …: GDTVVEPAPLKPTSEPTSGPPGNNGGSLLSVITEGVGELSVIDPEVAQKACQEVLEKVKLLHGGVAVSSRGTPLELVNGDGVDSEIRCLDDPPAQIREEEDEMGAAVASGTAKGARRRRQNNSAKQSWLLRLFESKLFDISMAISYLYNSKEPGVQAYIGNRLFCFRNEDVDFYLPQLLNMYIHMDEDVGDAIKPYIVHRCRQSINFSLQCALLLGAYSSDMHISTQRHSRGTKLRKLILSDELKPAHRKRELPSLSPAPDTGLSPSKRTHQRSKSDATASISLSSNLKRTASNPKVENEDEELSSSTESIDNSFSSPVRLAPEREFIKSLMAIGKRLATLPTKEQKTQRLISELSLLNHKLPARVWLPTAGFDHHVVRVPHTQAVVLNSKDKAPYLIYVEVLECENFDTTSVPARIPENRIRSTRSVENLPECGITHEQRAGSFSTVPNYDNDDEAWSVDDIGELQVELPEVHTNSCDNISQFSVDSITSQESKEPVFIAAGDIRRRLSEQLAHTPTAFKRDPEDPSAVALKEPWQEKVRRIREGSPYGHLPNWRLLSVIVKCGDDLRQELLAFQVLKQLQSIWEQERVPLWIKPYKILVISADSGMIEPVVNAVSIHQVKKQSQLSLLDYFLQEHGSYTTEAFLSAQRNFVQSCAGYCLVCYLLQVKDRHNGNILLDAEGHIIHIDFGFILSSSPRNLGFETSAFKLTTEFVDVMGGLDGDMFNYYKMLMLQGLIAARKHMDKVVQIVEIMQQGSQLPCFHGSSTIRNLKERFHMSMTEEQLQLLVEQMVDGSMRSITTKLYDGFQYLTNGIM
Difference (log2), untreated vs GFP (GFP-14-3-3β; [3]): 4.864 log2

Difference (log2), PP1 vs untreated [1, 4]: 1.455
B2: FAM83H (protein, UniProt Q6ZRV2 1-1179, looked up)
Protein FAM83H: MARRSQSSSQGDNPLAPGYLPPHYKEYYRLAVDALAEGGSEAYSRFLATEGAPDFLCPEELEHVSRHLRPPQYVTREPPEGSLLDVDMDGSSGTYWPVNSDQAVPELDLGWPLTFGFQGTEVTTLVQPPPPDSPSIKDEARRMIRSAQQVVAVVMDMFTDVDLLSEVLEAAARRVPVYILLDEMNAQHFLDMADKCRVNLQHVDFLRVRTVAGPTYYCRTGKSFKGHVKEKFLLVDCAVVMSGSYSFMWSFEKIHRSLAHVFQGELVSSFDEEFRILFAQSEPLVPSAAALARMDAYALAPYAGAGPLVGVPGVGAPTPFSFPKRAHLLFPPPREEGLGFPSFLDPDRHFLSAFRREEPPRMPGGALEPHAGLRPLSRRLEAEAGPAGELAGARGFFQARHLEMDAFKRHSFATEGAGAVENFAAARQVSRQTFLSHGDDFRFQTSHFHRDQLYQQQYQWDPQLTPARPQGLFEKLRGGRAGFADPDDFTLGAGPRFPELGPDGHQRLDYVPSSASREVRHGSDPAFAPGPRGLEPSGAPRPNLTQRFPCQAAARPGPDPAPEAEPERRGGPEGRAGLRRWRLASYLSGCHGEDGGDDGLPAPMEAEAYEDDVLAPGGRAPAGDLLPSAFRVPAAFPTKVPVPGPGSGGNGPEREGPEEPGLAKQDSFRSRLNPLVQRSSRLRSSLIFSTSQAEGAAGAAAATEKVQLLHKEQTVSETLGPGGEAVRSAASTKVAELLEKYKGPARDPGGGAGAITVASHSKAVVSQAWREEVAAPGAVGGERRSLESCLLDLRDSFAQQLHQEAERQPGAASLTAAQLLDTLGRSGSDRLPSRFLSAQSHSTSPQGLDSPLPLEGSGAHQVLHNESKGSPTSAYPERKGSPTPGFSTRRGSPTTGFIEQKGSPTSAYPERRGSPVPPVPERRSSPVPPVPERRGSLTLTISGESPKAGPAEEGPSGPMEVLRKGSLRLRQLLSPKGERRMEDEGGFPVPQENGQPESPRRLSLGQGDSTEAATEERGPRARLSSATANALYSSNLRDDTKAILEQISAHGQKHRAVPAPSPGPTHNSPELGRPPAAGVLAPDMSDKDKCSAIFRSDSLGTQGRLSRTLPASAEERDRLLRRMESMRKEKRVYSRFEVFCKKEEASSPGAGEGPAEEGTRDSKVGKFVPKILGTFKSKK
Difference (log2), untreated vs GFP (GFP-14-3-3β; [5]): -1.013

Difference (log2), PP1 vs untreated [1, 2]: -5.844 log2
B3: PFKFB2 (protein, UniProt O60825 2-505, looked up)
6-phosphofructo-2-kinase/fruct …: SGASSSEQNNNSYETKTPNLRMSEKKCSWASYMTNSPTLIVMIGLPARGKTYVSKKLTRYLNWIGVPTKVFNLGVYRREAVKSYKSYDFFRHDNEEAMKIRKQCALVALEDVKAYLTEENGQIAVFDATNTTRERRDMILNFAEQNSFKVFFVESVCDDPDVIAANILEVKVSSPDYPERNRENVMEDFLKRIECYKVTYRPLDPDNYDKDLSFIKVINVGQRFLVNRVQDYIQSKIVYYLMNIHVQPRTIYLCRHGESEFNLLGKIGGDSGLSVRGKQFAQALRKFLEEQEITDLKVWTSQLKRTIQTAESLGVPYEQWKILNEIDAGVCEEMTYAEIEKRYPEEFALRDQEKYLYRYPGGESYQDLVQRLEPVIMELERQGNVLVISHQAVMRCLLAYFLDKGADELPYLRCPLHTIFKLTPVAYGCKVETIKLNVEAVNTHRDKPTNNFPKNQTPVRMRRNSFTPLSSSNTIRRPRNYSVGSRPLKPLSPLRAQDMQEGAD
Difference (log2), untreated vs GFP (GFP-14-3-3β; [3]): 3.999 log2

Difference (log2), PP1 vs untreated [1, 2]: -5.566 log2
B4: PPFIBP1 (protein, UniProt Q86W92 1-1011, looked up)
Liprin-beta-1: MMSDASDMLAAALEQMDGIIAGSKALEYSNGIFDCQSPTSPFMGSLRALHLVEDLRGLLEMMETDEKEGLRCQIPDSTAETLVEWLQSQMTNGHLPGNGDVYQERLARLENDKESLVLQVSVLTDQVEAQGEKIRDLEFCLEEHREKVNATEEMLQQELLSRTSLETQKLDLMAEISNLKLKLTAVEKDRLDYEDKFRDTEGLIQEINDLRLKVSEMDSERLQYEKKLKSTKSLMAKLSSMKIKVGQMQYEKQRMEQKWESLKDELASLKEQLEEKESEVKRLQEKLVCKMKGEGVEIVDRDIEVQKMKKAVESLMAANEEKDRKIEDLRQCLNRYKKMQDTVVLAQGKDGEYEELLNSSSISSLLDAQGFSDLEKSPSPTPVMGSPSCDPFNTSVPEEFHTTILQVSIPSLLPATVSMETSEKSKLTPKPETSFEENDGNIILGATVDTQLCDKLLTSSLQKSSSLGNLKKETSDGEKETIQKTSEDRAPAESRPFGTLPPRPPGQDTSMDDNPFGTRKVRSSFGRGFFKIKSNKRTASAPNLAETEKETAEHLDLAGASSRPKDSQRNSPFQIPPPSPDSKKKSRGIMKLFGKLRRSQSTTFNPDDMSEPEFKRGGTRATAGPRLGWSRDLGQSNSDLDMPFAKWTKEQVCNWLMEQGLGSYLNSGKHWIASGQTLLQASQQDLEKELGIKHSLHRKKLQLALQALGSEEETNHGKLDFNWVTRWLDDIGLPQYKTQFDEGRVDGRMLHYMTVDDLLSLKVVSVLHHLSIKRAIQVLRINNFEPNCLRRRPSDENTIAPSEVQKWTNHRVMEWLRSVDLAEYAPNLRGSGVHGGLMVLEPRFNVETMAQLLNIPPNKTLLRRHLATHFNLLIGAEAQHQKRDAMELPDYVLLTATAKVKPKKLAFSNFGNLRKKKQEDGEEYVCPMELGQASGSASKKGFKPGLDMRLYEEDDLDRLEQMEDSEGTVRQIGAFSEGINNLTHMLKEDDMFKDFAARSPSASITDEDSNV
Difference (log2), untreated vs GFP (GFP-14-3-3β; [3]): 6.964 log2

Difference (log2), PP1 vs untreated [1, 4]: 1.464
B5: SRPK1 (protein, UniProt Q96SB4 1-655, looked up)
SRSF protein kinase 1: MERKVLALQARKKRTKAKKDKAQRKSETQHRGSAPHSESDLPEQEEEILGSDDDEQEDPNDYCKGGYHLVKIGDLFNGRYHVIRKLGWGHFSTVWLSWDIQGKKFVAMKVVKSAEHYTETALDEIRLLKSVRNSDPNDPNREMVVQLLDDFKISGVNGTHICMVFEVLGHHLLKWIIKSNYQGLPLPCVKKIIQQVLQGLDYLHTKCRIIHTDIKPENILLSVNEQYIRRLAAEATEWQRSGAPPPSGSAVSTAPQPKPADKMSKNKKKKLKKKQKRQAELLEKRMQEIEEMEKESGPGQKRPNKQEESESPVERPLKENPPNKMTQEKLEESSTIGQDQTLMERDTEGGAAEINCNGVIEVINYTQNSNNETLRHKEDLHNANDCDVQNLNQESSFLSSQNGDSSTSQETDSCTPITSEVSDTMVCQSSSTVGQSFSEQHISQLQESIRAEIPCEDEQEQEHNGPLDNKGKSTAGNFLVNPLEPKNAEKLKVKIADLGNACWVHKHFTEDIQTRQYRSLEVLIGSGYNTPADIWSTACMAFELATGDYLFEPHSGEEYTRDEDHIALIIELLGKVPRKLIVAGKYSKEFFTKKGDLKHITKLKPWGLFEVLVEKYEWSQEEAAGFTDFLLPMLELIPEKRATAAECLRHPWLNS
Difference (log2), untreated vs GFP (GFP-14-3-3β; [5]): 0.8168

Difference (log2), PP1 vs untreated [1, 2]: -6.84 log2
B6: SRSF7 (protein, UniProt Q16629 1-238, looked up)
Serine/arginine-rich splicing …: MSRYGRYGGETKVYVGNLGTGAGKGELERAFSYYGPLRTVWIARNPPGFAFVEFEDPRDAEDAVRGLDGKVICGSRVRVELSTGMPRRSRFDRPPARRPFDPNDRCYECGEKGHYAYDCHRYSRRRRSRSRSRSHSRSRGRRYSRSRSRSRGRRSRSASPRRSRSISLRRSRSASLRRSRSGSIKGSRYFQSPSRSRSRSRSISRPRSSRSKSRSPSPKRSRSPSGSPRRSASPERMD
Difference (log2), untreated vs GFP (GFP-14-3-3β; [3]): 7.205 log2

Difference (log2), PP1 vs untreated [1, 2]: -5.572 log2
B7: FAM122B (protein, UniProt Q7Z309 2-247, looked up)
PABIR family member 2: AQEKMELDLEPDTSYGGTLRRSSSAPLIHGLSDLSQVFQPYTLRTRRNSTTIMSRHSLEEGLDMVNRETAHEREMQTAMQISQSWDESLSLSDSDFDKPEKLYSPKRIDFTPVSPAPSPTRGFGKMFVSSSGLPPSPVPSPRRFSRRSQSPVKCIRPSVLGPLKRKGEMETESQPKRLFQGTTNMLSPDAAQLSDLSSCSDILDGSSSSSGLSSDPLAKGSATAESPVACSNSCSSFILMDDLSPK
Difference (log2), untreated vs GFP (GFP-14-3-3β; [3]): 4.879 log2

Difference (log2), PP1 vs untreated [1, 2]: -5.048 log2
B8: NEDD4L (protein, UniProt Q96PU5 2-975, looked up)
E3 ubiquitin-protein ligase …: ATGLGEPVYGLSEDEGESRILRVKVVSGIDLAKKDIFGASDPYVKLSLYVADENRELALVQTKTIKKTLNPKWNEEFYFRVNPSNHRLLFEVFDENRLTRDDFLGQVDVPLSHLPTEDPTMERPYTFKDFLLRPRSHKSRVKGFLRLKMAYMPKNGGQDEENSDQRDDMEHGWEVVDSNDSASQHQEELPPPPLPPGWEEKVDNLGRTYYVNHNNRTTQWHRPSLMDVSSESDNNIRQINQEAAHRRFRSRRHISEDLEPEPSEGGDVPEPWETISEEVNIAGDSLGLALPPPPASPGSRTSPQELSEELSRRLQITPDSNGEQFSSLIQREPSSRLRSCSVTDAVAEQGHLPPPSAPAGRARSSTVTGGEEPTPSVAYVHTTPGLPSGWEERKDAKGRTYYVNHNNRTTTWTRPIMQLAEDGASGSATNSNNHLIEPQIRRPRSLSSPTVTLSAPLEGAKDSPVRRAVKDTLSNPQSPQPSPYNSPKPQHKVTQSFLPPGWEMRIAPNGRPFFIDHNTKTTTWEDPRLKFPVHMRSKTSLNPNDLGPLPPGWEERIHLDGRTFYIDHNSKITQWEDPRLQNPAITGPAVPYSREFKQKYDYFRKKLKKPADIPNRFEMKLHRNNIFEESYRRIMSVKRPDVLKARLWIEFESEKGLDYGGVAREWFFLLSKEMFNPYYGLFEYSATDNYTLQINPNSGLCNEDHLSYFTFIGRVAGLAVFHGKLLDGFFIRPFYKMMLGKQITLNDMESVDSEYYNSLKWILENDPTELDLMFCIDEENFGQTYQVDLKPNGSEIMVTNENKREYIDLVIQWRFVNRVQKQMNAFLEGFTELLPIDLIKIFDENELELLMCGLGDVDVNDWRQHSIYKNGYCPNHPVIQWFWKAVLLMDAEKRIRLLQFVTGTSRVPMNGFAELYGSNGPQLFTIEQWGSPEKLPRAHTCFNRLDLPPYETFEDLREKLLMAVENAQGFEGVD
Difference (log2), untreated vs GFP (GFP-14-3-3β; [3]): 4.407 log2
